According to PMC3527510, “Bin2 Is a Membrane Sculpting N-BAR Protein That Influences Leucocyte Podosomes, Motility and Phagocytosis” (PLoS ONE, 2012):
Residue numbers refer to the chain shown, from its start. Numbers in names are those of the source.

T1: GST-hBin2-CT (C-terminal region of human Bin2, amino acids 237-565) (Homo sapiens (Human), UniProt Q9UBW5)
T1 chain: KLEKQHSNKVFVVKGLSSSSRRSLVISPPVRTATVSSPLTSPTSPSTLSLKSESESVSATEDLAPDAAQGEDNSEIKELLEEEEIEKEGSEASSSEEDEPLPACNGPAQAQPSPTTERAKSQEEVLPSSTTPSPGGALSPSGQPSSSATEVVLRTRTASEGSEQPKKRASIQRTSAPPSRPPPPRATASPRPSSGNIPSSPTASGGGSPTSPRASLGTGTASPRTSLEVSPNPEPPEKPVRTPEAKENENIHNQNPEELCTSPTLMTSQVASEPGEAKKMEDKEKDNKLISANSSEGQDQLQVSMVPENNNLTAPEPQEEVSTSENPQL

B1: Human Bin2 BAR domain (residues 20-238; Bin2 N-BAR Δ19) (domain or fragment, UniProt Q9UBW5 20-238, looked up)
chain: KFSRAQEKVLQKLGKAVETKDERFEQSASNFYQQQAEGHKLYKDLKNFLSAVKVMHESSKRVSETLQEIYSSEWDGHEELKAIVWNNDLLWEDYEEKLADQAVRTMEIYVAQFSEIKERIAKRGRKLVDYDSARHHLEAVQNAKKKDEAKTAKAEEEFNKAQTVFEDLNQELLEELPILYNSRIGCYVTIFQNISNLRDVFYREMSKLNHNLYEVMSKL
notes: Bridging integrator-2 (Bin2, BRAP1), human, residues 20-238; human Bin2 has 565 amino acids; the final model holds residues 37-238; Cloned into BamH1/Xho1 sites of pGEX-4T-2; also called hBin2 BAR; Bin2-NTΔ19; source: E. coli DH5α, purified (glutathione sepharose, thrombin cleavage, HiTrap Q, gel filtration)
B2: Human α-PIX SH3 domain (amino acids 160-222) (domain or fragment, UniProt Q15052 160-222, looked up)
chain: SHQLIVKARFNFKQTNEDELSVCKGDIIYVTRVEEGGWWEGTLNGRTGWFPSNYVREIKSSER
notes: α-PIX, human, SH3 domain, residues 160-222; Cloned into pGEX-4T-2
B3: GST-hBin2-CT (C-terminal region of human Bin2, amino acids 237-565) (domain or fragment, UniProt Q9UBW5 237-565, looked up)
chain: T1 chain
notes: Cloned into Nde1/Not1 sites of pGEX-4T-2; also called GST-Bin2-CT; BCT; source: E. coli DH5α, purified (glutathione sepharose, eluted with glutathione, dialysed)
B4: Human Bin2 N-BAR domain (1-238) (domain or fragment, UniProt Q9UBW5 1-238, looked up)
chain: MAEGKAGGAAGLFAKQVQKKFSRAQEKVLQKLGKAVETKDERFEQSASNFYQQQAEGHKLYKDLKNFLSAVKVMHESSKRVSETLQEIYSSEWDGHEELKAIVWNNDLLWEDYEEKLADQAVRTMEIYVAQFSEIKERIAKRGRKLVDYDSARHHLEAVQNAKKKDEAKTAKAEEEFNKAQTVFEDLNQELLEELPILYNSRIGCYVTIFQNISNLRDVFYREMSKLNHNLYEVMSKL
notes: Bridging integrator-2 (Bin2, BRAP1), human, residues 1-238; also called hBin2 N-BAR; source: E. coli DH5α, purified (glutathione sepharose, thrombin cleavage, HiTrap Q, gel filtration)
B5: Rat Bin2 N-BAR domain (1-238), wild type (domain or fragment, UniProt Q68FR2 1-238, looked up)
chain: MAEGKAGGAAGLFAKQMQKKFSRAQEKVLQKLGKTVETKDERFEQSASNFYQQQAEGHRLYKDLKNFLSAVKVMRESSKRVSETLQEIYNSDWDGHEDLKAIVGNNDLLWEDYEEKLADQALRTMENYVSQFSEVKERIAKRGRKLVDYDSARHHLEAVQNAKKKDEAKMAKAEEDFSKAQVVFEDLNQELLEELPVLYNSRIGCYVTVFQNISNLRDVFYREMSKLNHSLYEVMSKL
notes: Bridging integrator-2 (Bin2), rat, residues 1-238; also called WT rBin2 N-BAR
B6: Rat Bin2 N-BAR V81R,S214E mutant (domain or fragment, UniProt Q68FR2 1-238, looked up)
chain: B5 chain with V81R, S214E
notes: also called rBin2 N-BAR V81R,S214E; dimerization mutant

Assays:
[1] = target: the molecule itself; experiment: crystal structure; hanging-drop crystals in 10% MPD, 7% PEG4000, 0.1 M sodium citrate pH 5.3, 20°C; MIRAS phasing; two molecules in the asymmetric unit
[2] = target: T1, GST-hBin2-CT (C-terminal region of …); experiment: GST pull-down, Coomassie
[3] = target: B3; experiment: pull-down; 10 µg GST fusion or GST on glutathione beads with rising amounts of purified prey, 60 min; 20 mM HEPES pH 7.5, 150 mM NaCl, 1 mM DTT, 0.1% Triton X-100; SDS-PAGE, Coomassie; conditions: both partners purified
[4] = target: T2, Full-length rat Endophilin A1 (rat, UniProt O35179 1-352); experiment: as above; conditions: both partners purified
T2 construct: Endophilin A1, rat, full length; Cloned into pGEX-6P-2; also called rEndoA1; EndoA1

[5] = target: the molecule itself; experiment: AUC; equilibrium sedimentation, 20°C, 20,000, 30,000 and 40,000 rpm; 20 mM Tris, 200 mM NaCl, 0.1 mM DTT; dimer to monomers
[6] = target: the molecule itself; experiment: SEC; gel filtration profiles of WT rBin2 N-BAR against the V81R,S214E mutant, with molecular weight standards

T2 sequence (O35179 whole entry): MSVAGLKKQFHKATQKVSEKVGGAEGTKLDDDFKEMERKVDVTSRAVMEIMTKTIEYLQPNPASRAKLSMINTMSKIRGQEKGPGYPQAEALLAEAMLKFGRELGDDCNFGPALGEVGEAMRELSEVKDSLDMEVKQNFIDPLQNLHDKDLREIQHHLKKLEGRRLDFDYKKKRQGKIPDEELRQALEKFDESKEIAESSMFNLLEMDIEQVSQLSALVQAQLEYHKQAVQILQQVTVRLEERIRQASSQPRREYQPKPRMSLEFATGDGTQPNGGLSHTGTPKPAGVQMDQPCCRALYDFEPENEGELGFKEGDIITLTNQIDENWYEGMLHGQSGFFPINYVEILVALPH

B1: binds [1].

B2: binds [2]; binds [3].

B3: binds [4].

For B4, the Kd [5] was 7 µM.

B5: binds [6].

B6: binds [6].
